Measurements from the supplement of paper PMC9170038.

System: MS2 coat protein
Experiment: apparent KD of MS2 coat protein; designed switch direction (-1 OFF switch, 1 ON switch): 1; higher = weaker reporter binding
Method in brief: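 Designed RNA switches with common flanks were transcribed on Illumina chips by stalled E. coli RNA polymerase and titrated with SNAP-549-labelled MS2 coat protein, from 0.7 or 1.5 nM doubling to 3 µM, in Tris-HCl pH 7.5 buffer with KCl, MgCl2, BSA, DTT, tRNA and Tween-20. Steps lasted 0.8–1.5 h (lowest) to 10–20 min (highest). Titrations ran without input, with 200 uM small-molecule ligand, or with an oligonucleotide input. Normalised cluster fluorescence was curve-fitted, and apparent KD is the per-design median over clusters.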

[1] = input ligand: microRNA oligo, concentration not stated
[2] = Eterna round: R95, input ligand: FMN 200 uM
[3] = Eterna round: R95, input ligand: microRNA oligo, concentration not stated
[4] = Eterna round: R95, input ligand: none

GAGGAACAGGCCAACAUGAGGAUCACCCAUGUCCUCGCAUUUCAGGAUAUCUGGAAGAAGAAGAAAGAGAAGGGAAGGUGAAGC [AK SSNG3-V2-34.1] (Eterna round: R96, puzzle: Same State NG 3)
apparent KD of MS2 coat protein (input ligand: FMN 200 uM): 114 nM
apparent KD of MS2 coat protein [1]: 101 nM
apparent KD of MS2 coat protein (input ligand: none): 112 nM

CAUUGGACAUCCAGUGAGACAUGAGGAUCACCCAUGUAGGCGCAGGAUAUGCGGGUUCGGUGCUCGCAGAAGGGUGAAGAAAAC [Veenin] (Eterna round: R96, puzzle: Same State NG 3)
apparent KD of MS2 coat protein (input ligand: FMN 200 uM): 129 nM
apparent KD of MS2 coat protein [1]: 98.2 nM
apparent KD of MS2 coat protein (input ligand: none): 114 nM

AAUUUAAUACAUGAGGAUCACCCAUGUAAUACUUGUAAGAUCAAGGAUAUCAGCUCGAAUAGAGCUGAGAAGGUGAUCACAUGU [SSNG3/19-D1] (Eterna round: R96, puzzle: Same State NG 3)
apparent KD of MS2 coat protein [1]: 24.9 nM

AGAGAGGAAGCUGAGGAUAUCGUAAGGAGGACAUGAGGAUCACCCAUGUGUGUGGAAUUGGAGGACGAGAAGGCAGAGGAGUGGG [JR_SS2_Sub055] (puzzle: Same State 2)
apparent KD of MS2 coat protein [2]: 33 nM
apparent KD of MS2 coat protein [3]: 35.2 nM
apparent KD of MS2 coat protein [4]: 34.6 nM

GCGGAACGGGCCGACAUGAGGAUCACCCAUGUGGCCUCAUGUCAGGAUAUCGGGAAGAAGAAAACCGAGAAGGGACGGUGACGC [AK SSNG3-V2-32] (Eterna round: R96, puzzle: Same State NG 3)
apparent KD of MS2 coat protein (input ligand: FMN 200 uM): 8.18 nM
apparent KD of MS2 coat protein [1]: 29.8 nM
apparent KD of MS2 coat protein (input ligand: none): 22.2 nM

UGAUGCCCAUCAGGAUAUGGGCCCAUGAGGAUCACCCAUGUAAAGUAGGUCCAACAGGGCCAAGUCUAGAAGGGAUGGCGGGCA [malcolm 80 ssNG2 F5+F7.1] (Eterna round: R96, puzzle: Same State NG 2)
apparent KD of MS2 coat protein (input ligand: FMN 200 uM): 163 nM
apparent KD of MS2 coat protein [1]: 59.1 nM
apparent KD of MS2 coat protein (input ligand: none): 190 nM

UAGACAAGCUUUAUGUUCUUCCUUUUCCUACAUGAGGAUCACCCAUGUAGUCUGUCGAUUGAGAGAGUAGUUGAGAA [JR_SHM208A_Sub024] (puzzle: Sensor for hsa-mir-208a)
apparent KD of MS2 coat protein [2]: 17.8 nM
apparent KD of MS2 coat protein [3]: 16.5 nM
apparent KD of MS2 coat protein [4]: 18.2 nM

UAGAGAGGAAGCGAGGAUAUCGUGUUAGGUACAUGAGGAUCACCCAUGUUGUAGGUAGAGGUAGGCGAGAAGGCGCAGGAGAGGG [JR_SS2_Sub093] (puzzle: Same State 2)
apparent KD of MS2 coat protein [2]: 56.3 nM
apparent KD of MS2 coat protein [3]: 47.1 nM
apparent KD of MS2 coat protein [4]: 83.8 nM

UAGAGAGGAAGCGAGGAUAUCGUGGGAGGAACAUGAGGAUCACCCAUGUGUGAUGUUGAGAGGGACGAGAAGGCGCUGGAAAUUA [JR_SS2_Sub081] (puzzle: Same State 2)
apparent KD of MS2 coat protein [2]: 99.1 nM
apparent KD of MS2 coat protein [3]: 126 nM
apparent KD of MS2 coat protein [4]: 174 nM

ACAAGCUUUUUAGGAAGUGAAGGGAGGGAACAUGAGGAUCACCCAUGUAAGUGGAAUGAAGAAGGAGCACGUCUUAU [JR_SHM208A_Sub097] (puzzle: Sensor for hsa-mir-208a)
apparent KD of MS2 coat protein [2]: 32.7 nM
apparent KD of MS2 coat protein [3]: 26.6 nM
apparent KD of MS2 coat protein [4]: 43.1 nM

AGUAAGAGUCAAGGAUAUGCUACCGUUUCGGUAGCAGAAGGUGAUCACAUGAGGAUCACCCAUGUAUAAAUGCGUGAGCGUGCU [JL SSNG1 3.63] (Eterna round: R96, puzzle: Same State NG 1)
apparent KD of MS2 coat protein (input ligand: FMN 200 uM): 679 nM
apparent KD of MS2 coat protein [1]: 28.2 nM
apparent KD of MS2 coat protein (input ligand: none): 59 nM

UAGUAUUAACGAGGAUAUAAUAUGUUCAAUUUUUUAUAUUGUUUACAUGAGGAUCACCCAUGUUAUUAGAAGGCGUAUGGGAUU [JR_SSNG2_Sub082] (Eterna round: R96, puzzle: Same State NG 2)
apparent KD of MS2 coat protein [1]: 50.9 nM

UAGAGAGGAAGCGAGGAUAUCGUGUUAGGUACAUGAGGAUCACCCAUGUUUUAAGUAGAGAUAGGCGAGAAGGCGCAGGAGAAAA [JR_SS2_Sub088] (puzzle: Same State 2)
apparent KD of MS2 coat protein [2]: 28.6 nM
apparent KD of MS2 coat protein [3]: 26.7 nM
apparent KD of MS2 coat protein [4]: 30.2 nM

GCUCAUAGUAUAUGGGUACAAGCUUUUUGACAUGAGGAUCACCCAUGUACUCGUCUUAUGUGCAGUCCGUAGACUGC [JL-shm-2.21 Brourd mod] (puzzle: Sensor for hsa-mir-208a)
apparent KD of MS2 coat protein [2]: 104 nM
apparent KD of MS2 coat protein [3]: 17.3 nM
apparent KD of MS2 coat protein [4]: 137 nM

GGCCAGAGUCAAGGAUAUGCUACCGUUUCGGUAGCAGAAGGUGAUCACAUGAGGAUCACCCAUGUAUACGCUGGGAAGCGGGCC [JL SSNG1 3.65] (Eterna round: R96, puzzle: Same State NG 1)
apparent KD of MS2 coat protein (input ligand: FMN 200 uM): 163 nM
apparent KD of MS2 coat protein [1]: 155 nM
apparent KD of MS2 coat protein (input ligand: none): 119 nM

AUAAGGCAAGCUUUUUUCUCGUAGUGUAAACAUGAGGAUCACCCAUGUGCCCACCCUGGACCUUUGGAUCGCAGAAA [Geatxe] (puzzle: Sensor for hsa-mir-208a)
apparent KD of MS2 coat protein [2]: 30.5 nM
apparent KD of MS2 coat protein [3]: 25.9 nM
apparent KD of MS2 coat protein [4]: 25.9 nM

CUGCUCGGGUGAGGAUAUGCCGCCGUUUCGGCUGCAGAAGGUGCUACGUUACAUGAGGAUCACCCAUGUCUCUGUUGUUUCGUC [salish99_SSNG1_r04_967] (Eterna round: R96, puzzle: Same State NG 1)
apparent KD of MS2 coat protein (input ligand: FMN 200 uM): 74 nM
apparent KD of MS2 coat protein [1]: 41 nM
apparent KD of MS2 coat protein (input ligand: none): 57.3 nM

UUGAAGAAUUAAGGAUAUUGAUUACAUAUGUUUAACAUGAGGAUCACCCAUGUGGGUUGCGGUAUCGAGAAGGUAAAUUAAUAG [Mat - same State NG 2 - JL mod - D81] (Eterna round: R96, puzzle: Same State NG 2)
apparent KD of MS2 coat protein (input ligand: FMN 200 uM): 168 nM
apparent KD of MS2 coat protein [1]: 181 nM
apparent KD of MS2 coat protein (input ligand: none): 174 nM

AACAAUCUAUCUGAGGAUAUCAUGAAAUAAACAUGAGGAUCACCCAUGUGCAGUAAAACUGCAUAUGAGAAGGCAGAUAGAUUGA [salish99_ss2_r3_039] (puzzle: Same State 2)
apparent KD of MS2 coat protein [2]: 93.3 nM
apparent KD of MS2 coat protein [3]: 1850 nM
apparent KD of MS2 coat protein [4]: 1820 nM

UUGCGCUGUCGAGAGGAUAUGCGGUGUUGGACAUGAGGAUCACCCAUGUUAGCGAUUGCUUUACGGUAGAAGGCUCUUCAGCUGC [salish99_ss2_r3_098] (Eterna round: R96, puzzle: Same State 2)
apparent KD of MS2 coat protein (input ligand: FMN 200 uM): 74 nM
apparent KD of MS2 coat protein [1]: 50.1 nM
apparent KD of MS2 coat protein (input ligand: none): 82.8 nM

AUCCUACAUGAGGAUCACCCAUGUGACGCCUCAAUAGGAUAUCGGGCCCACAGUCGGGAACGAGAAGGAUUGAAGC [Beatonce] (puzzle: Same State 1)
apparent KD of MS2 coat protein [2]: 70 nM
apparent KD of MS2 coat protein [3]: 170 nM
apparent KD of MS2 coat protein [4]: 669 nM

CAGCGCUGUCGAGAGGAUAUGCAGUGAUGGACAUGAGGAUCACCCAUGUUAGCGAUAGCAUUACGGUAGAAGGCUCUACAGCUGC [Soteed - 13] (puzzle: Same State 2)
apparent KD of MS2 coat protein [3]: 16.4 nM

CCAUGGUAACAUGAGGAUCACCCAUGUACAAGCUUUUUGCUCGUCUUACCCGGCGCGCCCAUUAUGGGCGCGCCGGG [Nishu_Seq3] (puzzle: Sensor for hsa-mir-208a version 2)
apparent KD of MS2 coat protein [2]: 41.1 nM
apparent KD of MS2 coat protein [3]: 45.4 nM
apparent KD of MS2 coat protein [4]: 32.5 nM

AAAAGAAACAUGUACCUGAGUACAUGAAAACAUGAGGAUCACCCAUGUAACAAGUUGGGUGCUUGUCUUAUAAGAAA [JL pocket 4] (Eterna round: R96, puzzle: Sensor for hsa-mir-208a)
apparent KD of MS2 coat protein (input ligand: FMN 200 uM): 710 nM
apparent KD of MS2 coat protein [1]: 66.7 nM
apparent KD of MS2 coat protein (input ligand: none): 822 nM

AGACACAUGAGGAUCACCCAUGUUACGAGCUUAGCUCGGACACAGGAUAUCCGGUCCUAGAGACCGGAGAAGGGUGCCUGAUAA [Zara MOD3] (Eterna round: R96, puzzle: Same State NG 3)
apparent KD of MS2 coat protein (input ligand: FMN 200 uM): 568 nM
apparent KD of MS2 coat protein [1]: 678 nM
apparent KD of MS2 coat protein (input ligand: none): 765 nM

AGGAAGGAGGCUGAGGAUAUCGUAAGGAGGACAUGAGGAUCACCCAUGUGUAUAGGAUUGGAGGACGAGAAGGCAGAGGAGUGGG [JR_SS2_Sub049] (puzzle: Same State 2)
apparent KD of MS2 coat protein [2]: 49.8 nM
apparent KD of MS2 coat protein [3]: 25 nM
apparent KD of MS2 coat protein [4]: 29.4 nM

UUUAGUUGCGGGCAGGAUAUGUAUUAAUAUACAUGAGGAUCACCCAUGUGCGGGUAUAACACCCGACAGAAGGGCCAAUCGCGAC [Laonerce - 5] (puzzle: Same State 2)
apparent KD of MS2 coat protein [2]: 28.3 nM
apparent KD of MS2 coat protein [3]: 302 nM
apparent KD of MS2 coat protein [4]: 389 nM

GCUAGGAAUAAAGCCAACAUGAGGAUCACCCAUGUAUGUUGGUAGGAUAUCGUAUGCAAAGCAUACGAGAAGGGCUAACCUAGC [Mat - Same State NG 3 - JL Mod - D69] (Eterna round: R96, puzzle: Same State NG 3)
apparent KD of MS2 coat protein (input ligand: FMN 200 uM): 71.4 nM
apparent KD of MS2 coat protein [1]: 49.5 nM
apparent KD of MS2 coat protein (input ligand: none): 64.8 nM

AAAAGAAACAUGUACCUGAGUACAUGAAAACAUGAGGAUCACCCAUGUAACAAGCUGGGUGCUCGUCUUAUAAGAAA [JL pocket 1] (Eterna round: R96, puzzle: Sensor for hsa-mir-208a)
apparent KD of MS2 coat protein (input ligand: FMN 200 uM): 137 nM
apparent KD of MS2 coat protein [1]: 22.3 nM
apparent KD of MS2 coat protein (input ligand: none): 77.7 nM

UACAAUCUAUCUGAGGAUAUCAUGAACAAAACAUGAGGAUCACCCAUGUGCAGGAAAACUGCAUAUGAGAAGGCAGAUAGAUUGU [Mat - Same State 2 - Mod - D22] (puzzle: Same State 2)
apparent KD of MS2 coat protein [2]: 51 nM
apparent KD of MS2 coat protein [3]: 1560 nM
apparent KD of MS2 coat protein [4]: 876 nM

UGUUGUAUUACAGGAUAUCUAUGAUUUUGAUUUAGAGAAGGGUAUUCACAUGAGGAUCACCCAUGUAUAUACGAGGAAGUUGUG [JMF's solution 64] (Eterna round: R96, puzzle: Same State NG 1)
apparent KD of MS2 coat protein [1]: 40.4 nM

GCGAAGAGGUAAGGAUAUUCAUGGCAUAGACAUGAGGAUCACCCAUGUAGGAGACGAAUUAGAAGGAAGAAGGUACCAGGACGC [AK SSNG2-V2-18] (Eterna round: R96, puzzle: Same State NG 2)
apparent KD of MS2 coat protein (input ligand: FMN 200 uM): 137 nM
apparent KD of MS2 coat protein [1]: 111 nM
apparent KD of MS2 coat protein (input ligand: none): 187 nM
